{"source": "paper PMC4155161", "about": "(Structure(London, England:1993), 2014)", "molecules": {"B1": {"name": "zebrafish p53 tetramerization domain, DRp53(302-346) (domain or fragment, zebrafish (Danio rerio), UniProt G1K2L5 302-346, looked up)", "chain": "EEIFTLQVRGRERYEILKKLNDSLELSDVVPASDAEKYRQKFMTK", "notes": "numbering on UniProt/TrEMBL entry G1K2L5 (length of 374 amino acids); Crystallised construct; same vector and cleavage here; also called full-length tetramerization domain; long variant; not shown: His6, N-terminal, cleaved; lipoyl domain of B. stearothermophilus dihydrolipoamide acetyltransferase, N-terminal, cleaved"}, "B2": {"name": "zebrafish p53 tetramerization domain deletion variant lacking helix H2, DRp53(302-331) (domain or fragment, zebrafish (Danio rerio), UniProt G1K2L5 302-331, looked up)", "chain": "EEIFTLQVRGRERYEILKKLNDSLELSDVV", "notes": "numbering on UniProt/TrEMBL entry G1K2L5 (length of 374 amino acids); same vector and cleavage here; also called truncated domain; short variant; not shown: His6, N-terminal, cleaved; lipoyl domain of B. stearothermophilus dihydrolipoamide acetyltransferase, N-terminal, cleaved"}, "B3": {"name": "zebrafish p53 tetramerization domain, residues 302-345, DRp53(302-345) (domain or fragment, zebrafish (Danio rerio), UniProt G1K2L5 302-345, looked up)", "chain": "EEIFTLQVRGRERYEILKKLNDSLELSDVVPASDAEKYRQKFMT", "notes": "numbering on UniProt/TrEMBL entry G1K2L5 (length of 374 amino acids); Used for SEC-MALS; the two may be the same construct; not shown: His6, N-terminal, cleaved; lipoyl domain of B. stearothermophilus dihydrolipoamide acetyltransferase, N-terminal, cleaved; GGS, N-terminal, kept"}}, "key": {"p53 (Danio rerio)": {"biological_target": "p53 (Danio rerio) (UniProt P79734)", "conditions": "cited from earlier work"}, "[1]": {"biological_target": "the molecule itself", "experiment": "crystal structure; DRp53(302-346), two crystal forms (C222(1), 1.97 A; P2(1), 2.2 A), grown at 20 C with zinc acetate and polyethylene glycol"}, "[2]": {"biological_target": "the molecule itself", "experiment": "SEC-MALS; DRp53(302-331) at high concentrations (170 and 870 uM monomer at the peak); room temperature, 50 mM Tris pH 7.5, 150 mM NaCl, Superdex 75 10/300"}, "[3]": {"biological_target": "the molecule itself", "experiment": "SEC-MALS; DRp53(302-345) at 185, 46 and 9 uM (monomer concentration at the peak); room temperature, 50 mM Tris pH 7.5, 150 mM NaCl, Superdex 75 10/300"}}}
{"molecule": "p53 (from UniProt P79734)", "values": [{"measurement": "Kd", "setting": "p53 (Danio rerio)", "result": 3.6, "unit": "nM"}]}
{"molecule": "B1", "values": [{"measurement": "binding result", "setting": "[1]", "result": "binds"}]}
{"molecule": "B2", "values": [{"measurement": "stoichiometry N", "setting": "[2]", "result": 4}]}
{"molecule": "B3", "values": [{"measurement": "stoichiometry N", "setting": "[3]", "result": 4}]}
